± gives the standard deviation of the averaged measurements.
System: ATP
Test: switch fluorescence ratio, 500 uM ATP over buffer (Cy3 cluster intensity, sum of 5 cycles each) (fold (ratio)); higher = stronger signal-on switching upon ATP binding; sequences stand for … in TCGTCGGCAGCGTCAGATGTGTATAAGAGACAGTTTTTTTTTTTTTTTTTTTTTTTTT…TC
Details: aptamer strand: ATP DNA aptamer (quencher-CACCTGGGGGAGTATTGCGGAGGAAGG + anchor), 100 nM annealed; ATP concentration: 500 uM
Summary of the method: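 Five buffer/ATP imaging cycles were run on Cy3-labelled switching-strand clusters on a modified Illumina MiSeq flow-cell, with NaOH stripping and re-annealing between cycles. In each cycle, clusters annealed to 100 nM quencher-labelled ATP aptamer were imaged in selection buffer, then after 15 min with 500 uM ATP at 22 °C. Per cluster, the fluorescence ratio is summed target-cycle over summed buffer-cycle Cy3 intensity, averaged per switch-domain sequence. Only clusters within 100-1000 RFU were kept.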
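Also: ATP exposure 15 min at 22 °C before imaging.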

| Sequence | switch fluorescence ratio |
| --- | --- |
| GCGGGGCCCA | 1.01 ± 0.013 |
| ACCGTGTTAT | 0.9583 ± 0.0037 |
| CAGCAGATTA | 1.04 ± 0.018 |
| TTACGGGGTC | 1.07 ± 0.12 |
| TAGTGTTTGG | 1.02 ± 0.073 |
| ATAGGATCAT | 0.975 ± 0.03 |
| CGCAGAGGCT | 1.06 ± 0.044 |
| GTTTAATGGA | 1.01 ± 0.021 |
| GGGTTATGCT | 0.99 ± 0.046 |
| TAGAAAATGG | 1 ± 0.029 |
| TTGAGAGGGG | 0.981 ± 0.021 |
| CTCCCCGGGT | 3 ± 1.1 |
| TGGCGGTACG | 1.02 ± 0.069 |
| CGTAGTTTGC | 1.52 ± 0.098 |
| CCTCAGACAG | 1.58 ± 0.052 |
| CTTCTGTCGT | 1.034 ± 0.0018 |
| TATGTAATTG | 0.965 ± 0.058 |
| AAAGTGAGGG | 0.986 ± 0.013 |
| GGGGTTTGAA | 0.984 ± 0.016 |
| AGTCAGATGG | 0.981 ± 0.025 |
| TAGAAAATTT | 1 ± 0.022 |

| Sequence | switch fluorescence ratio |
| --- | --- |
| TCATTCGTCG | 0.9712 ± 0.0031 |
| ATGGGCAGGT | 0.985 ± 0.02 |
| TTCTAGGGCA | 1.02 ± 0.038 |
| ATCGGTAACT | 1.01 ± 0.032 |
| AAGGGGGCCG | 1.06 ± 0.092 |
| TTTCTATATA | 1 ± 0.052 |
| GTCAGCTTGC | 1 ± 0.025 |
| CGTTTGTTCT | 1.03 ± 0.061 |
| TGGTTGGGGT | 1.01 ± 0.054 |
| TTTTTATTTG | 0.995 ± 0.05 |
| CGGGGAAGTT | 0.9847 ± 0.0079 |
| GGTACTTCGA | 0.9938 ± 0.0015 |
| AAAGGTTAGG | 0.958 ± 0.029 |
| GGCGCAGTGG | 1.11 ± 0.041 |
| AGTAAGGCTC | 1.14 ± 0.061 |
| GTAGCTCCTG | 0.995 ± 0.056 |
| TTGGGGAGAC | 1.07 ± 0.061 |
| GCGTTTGCCC | 1.06 ± 0.072 |
| GATATTTTGG | 0.982 ± 0.025 |
| ATGGATTGGC | 1.08 ± 0.035 |
| GGCAGTTGGG | 0.9868 ± 0.007 |
